The source of these data is patent US8920798B2, “Myostatin binding agents, nucleic acids encoding the same, and methods of treatment” (Amgen Inc., priority 2002, dated 2014).

As a reminder, the IC50 is the concentration at which inhibition is half-maximal. Low values mean greater potency, high ones weaker potency. As a reminder, the Kd is the free concentration of one partner at which half of the binding sites on the other are occupied at equilibrium, for simple one-to-one binding. Read a low Kd as a tighter complex.

A short description of series [1]: In vivo pharmacokinetics in CD1 nu/nu mice. Set-up: species or system mouse. The conditions noted are these: 10 mg/kg and 5 mg/kg, peptibodies without the LE sequences. Here is the method:
In vivo pharmacokinetics experiments were performed using representative peptibodies without the LE sequences. 10 mg/kg and 5 mg/kg dosages were administered to CD1 nu/nu mice and the following parameters determined. Cmax (ug/mL), area under the curve (AUC) (ug-hr/mL), and half-life (hr).

The target of series [2] is T1, myostatin (Homo sapiens, UniProt O14793).
T1 construct: To produce mature myostatin, the pooled promyostatin was enzymatically cleaved between the propeptide and mature myostatin C terminal; made in house; host or cells: E. coli K-12 strain 2596 (ATCC #202174)
T1 sequence (O14793 267-375): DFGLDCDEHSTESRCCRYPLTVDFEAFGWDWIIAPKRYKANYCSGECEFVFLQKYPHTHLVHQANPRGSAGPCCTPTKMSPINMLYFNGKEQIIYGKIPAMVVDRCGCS
Briefly: C2C12 pMARE-luc cell based myostatin activity assay. The conditions noted are these: Table VIII; affinity matured peptibodies; a range of values is given. An excerpt: A myostatin-responsive reporter cell line was generated by transfection of C2C12 myoblast cells (ATCC No: CRL-1772) with a pMARE-luc construct. The pMARE-luc construct was made by cloning twelve repeats of the CAGA sequence, representing the myostatin/activin response elements (Dennler et al. EMBO 17: 3091-3100 (1998)) into a pLuc-MCS reporter vector (Stratagene cat #219087) upstream of the TATA box. The myoblast C2C12 cells naturally express myostatin/activin receptors on its cell surface. When myostatin binds the cell receptors, the Smad pathway is activated, and phosphorylated Smad binds to the response element (Maciasi-Silva et al. Cell 87:1215 (1996)), resulting in the expression of the lucerase gene. Luciferase activity is then measured using a commercial luciferase reporter assay kit (cat #E4550, Promega, Madison, Wis.) according to manufacturer's protocol. A stable line of C2C12 cells that had been transfected with pMARE-luc (C2C12/pMARE clone #44) was used to measure myostatin activity according to the following procedure.
Equal numbers of the reporter cells (C2C12/pMARE clone #44) were plated into 96 well cultures. A first round screening using two dilutions of peptibodies was performed with the myostatin concentration fixed at 4 nM. […] Myostatin activity was measured by determining the luciferase activity in the treated cultures. […]

In a further series the test system is C57B/6 mice. The series is described as follows: Gripping strength in C57B/6 mice. It counts as in vivo, mouse. The following applies: 4 month old male C57B/6 mice; s.c. 2 injections per week, 5 mg/kg per week, 30 days; measured day 18 of recovery. Here is the method: Normal age-matched 4 month old male C57B/6 mice were treated for 30 days with 2 injections per week subcutaneous injections 5 mg/kg per week of 2× mTN8-19-33, 2× mTN8-19-7, and huFc vehicle control group (10 animals/group). The animals were allowed to recover without any further injections. Gripping strength was measured on day 18 of the recovery period. Gripping strength was measured using a Columbia Instruments meter, model 1027 dsm (Columbus, Ohio).

Another series has as its system CD1 nu/nu mouse model. Briefly: In vivo anabolic activity in CD1 nu/nu mouse model. The conditions noted are these: CD1 nu/nu male mice; 1 and 3 mg/kg twice weekly for 35 days; vs 1× peptibody or huFc control; FIG. 5. An excerpt:
The CD1 nu/nu mouse model (Charles River Laboratories, Massachusettes) was used to determine the in vivo efficacy of the peptibodies of the present invention which included the human Fc region (huFc). This model responded to the inhibitors of the present invention with a rapid anabolic response which was associated with increased dry muscle mass and an increase in myofibrillar proteins but was not associated with accumulation in body water content.
A group of 10 8 week old CD1 nu/nu mice were treated twice weekly or once weekly with dosages of 1 mg/kg, 3 mg/kg and 10 mg/kg (subcutaneous injection). The control group of 10 8 week old CD1 nu/nu mice received a twice weekly (subcutaneous) injection of huFc (vehicle) at 10 mg/kg. The animals were weighed every other day and lean body mass determined by NMR on day 0 and day 13. The animals are then sacrificed at day 14 and the size of the gastrocnemius muscle determined.
In another example, the 1× mTN8-19-32 peptibody was administered to CD1 nu/nu mice in a biweekly injection of 1 mg/kg, 3 mg/kg, 10 mg/kg, and 30 mg/kg compared with the huFc control (vehicle).
CD1 nu/nu male mice (10 animals per group) were treated with twice weekly injections of 1 mg/kg and 3 mg/kg of 1× mTN8-19-7 and 2× mTN8-19-7 for 35 days, while the control group (10 animals) received twice weekly injections of huFc (3 mg/kg).

The target in series [3] is T1, myostatin. Briefly: BIAcore direct binding affinity assay on immobilized myostatin. The following applies: Table III. As for the experimental part:
An affinity analysis of each candidate myostatin peptibody was performed on a BIAcore® 3000 (Biacore, Inc., Piscataway, N.J.), apparatus using sensor chip CM5, and 0.005 percent P20 surfactant (Biacore, Inc.) as running buffer.
Direct binding assays were used to screen and rank the peptibodies in order of their ability to bind to immobilized myostatin. Binding assays were carried by injection of two concentrations (40 and 400 nM) of each candidate myostatin-binding peptibody to the immobilized myostatin surface at a flow rate of 50 μl/min for 3 minutes. After a dissociation time of 3 minutes, the surface was regenerated. Binding curves were compared qualitatively for binding signal intensity, as well as for dissociation rates. Peptibody binding kinetic parameters including ka (association rate constant), kd (dissociation rate constant) and KD (dissociation equilibrium constant) were determined using the BTA evaluation 3.1 computer program (Biacore, Inc.). The lower the dissociation equilibrium constants (expressed in nM), the greater the affinity of the peptibody for myostatin.
(In general: SPR reads the build-up and loss of mass on a sensor chip optically.)

B1: 2xmTN8-19-7: 2x peptibody, two mTN8-19-7 peptides in tandem on Fc (SEQ ID NO: 615) (protein)
chain: GGGGGAQLADHGQCIRWPWMCPPEGWELEGSGSATGGSGSTASSGSGSATGLADHGQCIRWPWMCPPEGWELE
modifications: Peptibody
For the molecule B1, the half-life result in series [1] is recorded as “about 106 hours”. This molecule had an IC50 with myostatin [2] of 0.857 to 2.65 nM. Moreover, the “increase in gripping strength compared with control-treated mice” value with C57B/6 mice worked out at 15%. In addition, in the series with CD1 nu/nu mouse model, the body weight gain entry was “greater body weight gain” and the “lean carcass weight at necropsy” value was “greater”.

B2: ActRIIB/Fc: soluble receptor fusion protein actRIIB/Fc (R&D Systems) (protein)
chain: SGRGEAETRECIYYNANWELERTNQSGLERCEGEQDKRLHCYASWRNSSGTIELVKKGCWLDDFNCYDRQECVATEENPQVYFCCCEGNFCNERFTHLPEAGGPEVTYEPPPTAPT
modifications: left off: a dimerising Fc or GST
In turn, B2 came in with an equilibrium dissociation constant (Kd) with myostatin [3] of about 7 nM.

B3: 2xmTN8-19-7(-LE): 2x mTN8-19-7 peptibody with the LE sequences deleted (SEQ ID NO: 617) (protein)
chain: GGGGGAQLADHGQCIRWPWMCPPEGWEGSGSATGGSGGGASSGSGSATGLADHGQCIRWPWMCPPEGWE
modifications: Peptibody
Regarding B3, the IC50 in the series with myostatin [2] was 1.08 to 1.22 nM.
